# In FireProtDB:
# “And” between values parts separate entries of the source, which are not always exact repeats. Equal values may be shown once.
# B1: Triosephosphate isomerase, P00943 (parent)
# chain: MRKPIIAGNWKMHKTLAEAVQFVEDVKGHVPPADEVISVVCAPFLFLDRLVQAADGTDLKIGAQTMHFADQGAYTGEVSPVMLKDLGVTYVILGHSERRQMFAETDETVNKKVLAAFTRGLIPIICCGESLEEREAGQTNAVVASQVEKALAGLTPEQVKQAVIAYEPIWAIGTGKSSTPEDANSVCGHIRSVVSRLFGPEAAEAIRIQYGGSVKPDNIRDFLAQQQIDGPLVGGASLEPASFLQLVEAGRHE
# B2: Tryptophan synthase alpha chain, P0A877 (parent)
# chain: MERYESLFAQLKERKEGAFVPFVTLGDPGIEQSLKIIDTLIEAGADALELGIPFSDPLADGPTIQNATLRAFAAGVTPAQCFEMLALIRQKHPTIPIGLLMYANLVFNKGIDEFYAQCEKVGVDSVLVADVPVEESAPFRQAALRHNVAPIFICPPNADDDLLRQIASYGRGYTYLLSRAGVTGAENRAALPLNHLVAKLKEYNAAPPLQGFGISAPDQVKAAIDAGAAGAISGSAIVKIIEQHINEPEKMLAALKVFVQPMKAATRS
# B3: Phenylalanine--tRNA ligase, mitochondrial, O95363 (parent)
# chain: MVGSALRRGAHAYVYLVSKASHISRGHQHQAWGSRPPAAECATQRAPGSVVELLGKSYPQDDHSNLTRKVLTRVGRNLHNQQHHPLWLIKERVKEHFYKQYVGRFGTPLFSVYDNLSPVVTTWQNFDSLLIPADHPSRKKGDNYYLNRTHMLRAHTSAHQWDLLHAGLDAFLVVGDVYRRDQIDSQHYPIFHQLEAVRLFSKHELFAGIKDGESLQLFEQSSRSAHKQETHTMEAVKLVEFDLKQTLTRLMAHLFGDELEIRWVDCYFPFTHPSFEMEINFHGEWLEVLGCGVMEQQLVNSAGAQDRIGWAFGLGLERLAMILYDIPDIRLFWCEDERFLKQFCVSNINQKVKFQPLSKYPAVINDISFWLPSENYAENDFYDLVRTIGGDLVEKVDLIDKFVHPKTHKTSHCYRITYRHMERTLSQREVRHIHQALQEAAVQLLGVEGRF
# Variants of: B1
# Details: Geobacillus stearothermophilus; pH 7.6; Thermal; DSC; TEA 100 mM; structure 1BTM; whole UniProt chain shown
Variant,Tm [°C],"change of melting temperature, mutant - wild type (higher = more stable) [°C]"
H13N K14G,105,
K14G,73,-3
H13N,77,1

# Variants of: B2
# Details: Escherichia coli (strain K12); pH 7; 25.8 °C; GdnHCl; CD; Potassium phosphate 0.01 M; reversible: yes; structure 1WQ5; whole UniProt chain shown
Variant,ddG of mutation (higher = less stable) [kcal/mol],unfolding free energy [kcal/mol]
E49M,-4.6,13.4
E49Q,2.5,6.3

# Same assay, conditions: Escherichia coli (strain K12); pH 7; 25 °C; Thermal; DSC; tetra-borate 1 mM; reversible: yes(70-95%); structure 1WQ5; whole UniProt chain shown
Variant,unfolding enthalpy (calorimetric) [kcal/mol],unfolding free energy [kcal/mol]
E49Q,23.2,7.4

# Same assay, conditions: Escherichia coli (strain K12); pH 7; Thermal; DSC; tetra-borate 1 mM; reversible: yes(70-95%); structure 1WQ5; whole UniProt chain shown
Variant,Tm [°C],heat capacity change of unfolding [kcal/mol/K]
E49Q,59.4,2.87

# Same assay, conditions: Escherichia coli (strain K12); pH 7.2; 25 °C; Thermal; CD; tetra-borate 1 mM; reversible: yes(70-95%); structure 1WQ5; whole UniProt chain shown
row,Variant,unfolding free energy [kcal/mol]
1,E49Q,6.1

# Same assay, conditions: Escherichia coli (strain K12); pH 7.2; Thermal; CD; tetra-borate 1 mM; reversible: yes(70-95%); structure 1WQ5; whole UniProt chain shown
Variant,Tm [°C],heat capacity change of unfolding [kcal/mol/K],unfolding enthalpy (van 't Hoff) [kcal/mol]
E49Q,59.6,2.68,14.3

# Same assay, conditions: Escherichia coli (strain K12); pH 9.3; Thermal; CD; tetra-borate 1 mM; reversible: yes(70-95%); structure 1WQ5; whole UniProt chain shown
Variant,Tm [°C],heat capacity change of unfolding [kcal/mol/K],unfolding enthalpy (van 't Hoff) [kcal/mol]
E49Q,59.6,2.68,14.3

# Same assay, conditions: Escherichia coli (strain K12); pH 9.3; Thermal; DSC; tetra-borate 1 mM; reversible: yes(70-95%); structure 1WQ5; whole UniProt chain shown
Variant,Tm [°C],heat capacity change of unfolding [kcal/mol/K]
E49Q,62.4,2.87

# Same assay, conditions: Escherichia coli (strain K12); pH 7.8; 25 °C; Urea; Fluorescence; Potassium phosphate 10 mM; reversible: yes; structure 1WQ5; whole UniProt chain shown
row,Variant,unfolding free energy [kcal/mol]
1,F258W,7

# Same assay, conditions: Escherichia coli (strain K12); pH 7.8; 25 °C; Urea; Fluorescence; Potassium phosphate 10 mM; transition: 3; reversible: yes; structure 1WQ5; whole UniProt chain shown
row,Variant,unfolding free energy
1,F139W,5.6 kcal/mol and 4.9 kcal/mol

# Same assay, conditions: Escherichia coli (strain K12); pH 9; Thermal; DSC; Sodium tetraborate 1 mM; reversible: yes(>70%); structure 1WQ5; whole UniProt chain shown
Variant,Tm [°C],"change of melting temperature, mutant - wild type (higher = more stable) [°C]"
K109N,52.5,-1.5

# Variants of: B3
# Details: Homo sapiens; pH 7.5; 25 °C; Urea; CD; Tris-HCl 50 mM; transition: 2; structure 3CMQ; whole UniProt chain shown
Variant,ddG of mutation (higher = less stable) [kcal/mol],denaturant midpoint (higher = more stable) [M]
N280S,-0.51,5.7
S57C,-0.43,5.9
S57C N280S,3.03,7.9
